The numbers were not newly measured in article PMC11941745, which cites them from elsewhere.

Series [1] concerns the target flotillin-2 (Homo sapiens) (UniProt Q14254). Briefly: SPR.
In series [2] the target is flotillin-1 (Homo sapiens) (UniProt O75955). Briefly: SPR.
Sequence of UniProt O75955 (O75955 whole entry): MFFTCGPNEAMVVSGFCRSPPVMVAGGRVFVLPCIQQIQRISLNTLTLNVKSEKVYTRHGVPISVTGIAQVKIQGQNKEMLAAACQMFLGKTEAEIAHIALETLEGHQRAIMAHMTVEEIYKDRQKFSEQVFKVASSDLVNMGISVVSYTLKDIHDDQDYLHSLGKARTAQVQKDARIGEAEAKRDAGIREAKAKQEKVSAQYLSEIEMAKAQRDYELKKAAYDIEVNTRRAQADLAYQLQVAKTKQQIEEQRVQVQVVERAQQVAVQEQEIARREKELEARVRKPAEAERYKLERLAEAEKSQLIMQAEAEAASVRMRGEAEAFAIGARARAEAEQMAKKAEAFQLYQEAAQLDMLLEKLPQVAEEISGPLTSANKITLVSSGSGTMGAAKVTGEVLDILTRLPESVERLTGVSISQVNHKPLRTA

Sequence of UniProt Q14254 (Q14254 2-428): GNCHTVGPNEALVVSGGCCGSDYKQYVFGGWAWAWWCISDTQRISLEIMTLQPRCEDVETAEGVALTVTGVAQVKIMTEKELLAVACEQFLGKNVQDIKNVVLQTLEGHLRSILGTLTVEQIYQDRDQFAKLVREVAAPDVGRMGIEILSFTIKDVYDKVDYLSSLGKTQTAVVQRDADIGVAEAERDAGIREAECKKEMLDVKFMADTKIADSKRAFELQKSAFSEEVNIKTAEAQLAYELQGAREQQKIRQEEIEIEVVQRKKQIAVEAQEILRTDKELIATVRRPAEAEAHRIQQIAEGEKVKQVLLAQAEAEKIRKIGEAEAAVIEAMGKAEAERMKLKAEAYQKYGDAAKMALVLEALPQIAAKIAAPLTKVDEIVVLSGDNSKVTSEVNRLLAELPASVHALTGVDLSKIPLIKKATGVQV

The Kd is the constant that tells how readily two partners part at equilibrium. Regarding MPP1 (from UniProt Q00013), the Kd is 24.8 nM in series [1] and 18.1 nM in series [2].
